Measurements as given in the DeepSol protein solubility set.

Assay: soluble on expression in E. coli; label from the status in PepcDB or PDB records

| Sequence | soluble on expression in E. coli |
| --- | --- |
| RSIRLPETIDLGALYLSMKDTEKGIKELNLEKDKKIFNHCFTGNCVIDWLVSNQSVRNRQEGLMIASSLLNEGYLQPAGDMSKSAVDGTAENPFLDNPDAFYYFPDSGFFCEEN | soluble |
| MKPRPQSDAVDNEGPTPLSKGRRHLAMRLDDAWLGFQTRLAIRRGRVETVIPYTGYGSTSWVRVLARIVRSDPRDAAGHTNPLQESMRGWRNFTSAPVAHASVQVTIDGTVHDVVADRGGVVDARIPVALDAGWHTITLRSGESETVEAPVEIVADDAVFGVVSDIDDTVMVTALPRPFLAAWNTFVLNEHARTPTPGMAVLYERIARTAPSAPVLYLSTGAWNVAPTLSRFLSRNLYPAGPKLLTDWGPTPDRWFRSGQEHKRTSLERLAEEFPNIKWLLVGDDGQHDEAIYSEFAQRHPASVRAIAIRQLSAGEAVLAGGRSKSGGQPTPGVPWIYAPDGAGMSAQLEELGIIRNEVRSADDPEEGEVTTGSDLEHHHHHH | soluble |
| AIAAYRGLHALSQPAYLEDFINSVSNLPQELRDKYGRMGELDALVQRLKNEADALVRELLRKPGSSDPDRGRDTTSLQQMGTKLEQLQAQCVKLNQEKLQLAETAYNTVDQHVRDLDTKLREYEAYLRREGQWPDDLQSLVVNTDHTKMASMKNAAAAAAAAHTAAAPATTARSTQKAPSKGQRKSGEPSTLHIMDDMPIDPNEPRYCYCQNVSYGQMVACESGDCPYEWFHFECVGLTEPPKGEWICPDCRARTGRVR | soluble |
| DRTTYYSILGLTSNATSSEVHKSYLKLARLLHPDKTKSDKSEELFKAVVHAHSILTDEDQKLRYDRDLKIKGLHTYQPKK | not soluble |
| MGSDKIHHHHHHMQTDKIFYSLFQAFTSIFFAIIGEADINPSTYEFVSVELKETAFRIDGVFKPVNETTEEPLYFVEVQFQLDPKFYRRFFAEIFLYLRQNPSVNFWRAVVIYPQRIIEPDDQQPYRSILDSSQIQRIYLDELGTANENSLQLAIMQLIIASEAIAIDQGRQLIIQARQELTDEANKKQIVELIETILLYKFTNLSREEVAAMLGIDDEFKKTRMYQSIKEDGLEEGRQEGRQQGIQEGRQEGRLQAKLEAIPRLLALGLSVEQIASALDLSIEQVQQVTGN | not soluble |
| GPGSMVPTLHPGEYIVFVPYTMLQVRRWFNAPLVNLSDVVVVKVSDDLSVCKRVVKCTSSRTQAEEWGKEHYVEVMPALYSPPAAQHTNGDDEDSTEIDSVANSERAYFDYVARNTVRSKDWDSCIDRIPNPSQWVWLEGDNKSESFDSRRCGPVPIECIRGLVLASIWPSPHTLQRPPPPPRASQLH | not soluble |
| SQAPHKEHLYKLLVIGDLGVGKTSIIKRYVHQNFSSHYRATIGVDFALKVLHWDPETVVRLQLWDIAGQERFGNMTRVYYREAMGAFIVFDVTRPATFEAVAKWKNDLDSKLSLPNGKPVSVVLLANKCDQGKDVLMNNGLKMDQFCKEHGFVGWFETSAKENINIDEASRCLVKHILANECDLMESIEPDVVKPHLTSTKVASCSGCAKS | soluble |
| KVKSTFNKYSKVSSSKGMTGAMVAEQLLRSQGIYDVSIQRVSGSLTDNYNPRNKTLNLSDSVYNSTSVAAIGVAAHETGHAIQHAYGYGPLSFRTALFP | not soluble |
| MSMTDLLNAEDIKKAVGAFSATDSFDHKKFFQMVGLKKKSADDVKKVFHMLDKDKSGFIEEDELGFILKGFSPDARDLSAKETKMLMAAGDKDGDGKIGVDEFSTLVAES | soluble |
| MGSDKIHHHHHHMHLSINLLPILSQHQVSFNTDIYCLEKFMFQIDTLIAAKIVDRTMKIIGHNINVMNAQAVILGSGDIDRIGTVHEGALLAISQNRNVEISQAIASNLHGVKPGLNLPLHYHGQVVGVIGITGEPDTLSHYGELLKMTAEMIVEQANLQEQLQWQNRQTEEFISQLIHANEQDLPSLQQWALQLGIDLSVPRVAAIIELDSNNPLYQQDNQALKQVLYLLQNPVRDNLIAMTSLTQLVILKPAFLDGKQFDPELENQRINKLLKRLPANMQLSLHISLGHYFGGELGISYSYRTAKETLDIGKKLHPTKTKYLYQDYSLQVLLSGLRHHWRGNALAGPYLKLIEVDNNQQLQKTLAAYLDHMGDIQACANSLFIHRNTLRYRLDKIQTITNIDLRSFNGLLSLYLGQLIHQPST | not soluble |
| MEFAGTIFIELTFTPKVPRLNRDDLNKEMDRLDSSMAMRPIPPLPTESEYDYVHGSTMRQITPQCVSTSHEDKDEGQPYRNGNVFSMSSKSDTAVLANSNDPIILPPTFSASMGTTSTLETNDTAISNTSNTKFHFANLRKLKEKINIFKNPDSST | not soluble |
| MSLGLSKTIWTNPAEYLRALSPEAPVLFFSPSTLQATARRFIDGFPGMVTYAVKSNPEEVVIENLAAAGIRGYDVASPHEIRMIRRIAPDAALHYNNPVRSRSEIGVGVEMGVKSWSVDSASELAKLIELVPAEGCEIAVRFKLAVSGAAYNFGAKFGATVELAVELLRRVAEAGFIPSMTFHPGTQCTDPAAWETYIRTAAEIARDAGVTIARLNVGGGFPSHRLNGVEPELEAIFHLIDRVTDEAFGADRPLLVCEPGRGICADAFTLAARIKAVRDDAHVFLNDGVYGSLTELPMIGVIDRVAVLTPEGRRRDGETRDRIIFGPTCDSVDRLPGELPLAADVEEGDFLVFQGMGAYSAATNTRFNGFGELSMATVLSLKEGHHHHHH | soluble |
| MKRTIILFDINETVLNLSALKPKFKATFGDESVMATWFSMLLHSSTVCIMTSVKTDFATLAGTMLESIAARMSIKLSKAARDDILAGFANLPPHNDIKPALAQLKSAGFRTVAFSNSSLNLISTQITNAGLKEYFDDIISVEETGSFKPDPTVYKFAAKRLNQPLESLRLVATHDWDTHGALSVEMRAAYINRSGAVYHPLYRQPDIYATTMEDIVKLIIEKDD | not soluble |
| MGSDKIHHHHHHMRSDLRIAIVANEKRGDGNIELRLQSKGYQVVTLTTPSSVMGFIYSDPPDVILMDLSSPDEAFLGIIRSLKDDFFFSTIPVIGMMPEPAAEFFDWDEYPLDDFVTFPLNFRELFTRIVLSLRRLRRVFDNNPLTRLPGNTSIQRAIEQTVGKPMAVCYVDINHFKQYNDVYGFAHGDEVLRMLGRIMSNAVKDAGDGFAGHIGGDDFVFIVPFDQAEVVAGRIIANFTAVVSELFNEEEKRNGFFLAHDRKGNEEKVPLMGVAIAIVPTDSPKIGHYAKVAEVAAELKTLAKQSHKSCFVVDRRKY | not soluble |
| SRDGSVAPKERINIRYVPATGDTQEDVELPLSMMVVGDFTARADETPIEERTPINIDKDNFNDVLEGMSPNVKVNVENRLSDEEGAQIGVDLTFQNMKDFSPEAIAKSVPELNSLLELREALVALKGPLGNVPAFRKKIASVLQDEEARKKLLDELSIG | not soluble |
| MRVVVSIGGSVLAPGLDADQVDAHADAINELTDAGCEVGAVVGGGGVARDYIGTARELGANEIELDDIGVDVTRLNARLLIAALGGDAAPSPAEDYEDAGEAMRRGDIAVMGGVVAGQTTDAVSAALAEYTDADLLLYATSVPGVFSADPNEDADAEHFTRMTAGELVDIIADIEMNAGSSAPVDLLAAKLIERSGVRTIVLDGTDPRRIVDAVRFGEHDGTDVIPDGTDNQMTYWADNQELEHHHHHH | not soluble |
| MLLYKDVISGDELVSDAYDLKEVDDIVYEADCQMVTVKQGGDVDIGANPSAEDAEENAEEGTETVNNLVYSFRLSPTSFDKKSYMSYIKGYMKAIKARLQESNPERVPVFEKNAIGFVKKILANFKDYDFYIGESMDPDAMVVLMNYREDGITPYMIFFKDGLVSEKF | soluble |
| GPGSMPPSTAAPYALRTDKLKPLEGYVAGCSVSPAEVASQVASSLQPVVLAICGSFNPIHNAHLKLYDAAKRSVDGADGRVVLGGFLSPVGDAYGKPGLRSAADRVHIMRKALCHHPDLNVDTWECQQPVYMRTFFVLQALEEHINAWYAESEPAAVEWLASHDRRVRVAFVCGADLFSSFWIPGCWQLRLLRQLLDSFHLVVVHRDGGRGCVRGADDFAHVCQTAPLLSETAEGGEKIEIDMSQYTFTFATFSAPDDTSSTAVRAAAMELARTPQGDAVTRAALQSRLRAMLPEAAVQSVVELYGKVLTS | not soluble |
| MSATMQSETVYDAVIVGGGVAGGTAALLLRQRGCSVALLEKRPLDYYKALCTHFIQPSAVPILRRVGLDHVLEPEASTRTKASFVTSEGVIDTPGGYTDDAATAYAYNLERRVLDPALRARARSEGVDLLDEATVTACRLQADGLWRVEADADTDTDGARHPRVLRARVVIAADGRRSQMAQWLNNAAVQHDNQRAAVFAQFEGIAVPGGNRSLFILAEREMGFVYPLTGGRTLLSAYVEKDRAAQWRHSADAGAPLLDFFARLAPGLDLAGARLLTPVLGYADYPSQFRQPVCGAVPFIGDAALSLDPMSGVGCGFAMEAAALLDEHLGPALQAQGNSAIGPALDAYASRFDTHFAAHARGIVADSLIAKQPAAQAALYRAVIADPALQRDYLALTGRLITPQAFQRAYFSAHVRSQRAATTHAHPPERASELSLEHHHHHH | not soluble |
| MGSDKIHHHHHHMGLFDFLKKGLQKTKETFFGRVVKLLKGKKLDDETREELEELLIQADVGVETTEYILERLEEKDGDALESLKEIILEILNFDTKLNVPPEPPFVIMVVGVNGTGKTTSCGKLAKMFVDEGKSVVLAAADTFRAAAIEQLKIWGERVGATVISHSEGADPAAVAFDAVAHALARNKDVVIIDTAGRLHTKKNLMEELRKVHRVVKKKIPDAPHETLLVIDATTGQNGLVQAKIFKEAVNVTGIILTKLDGTAKGGITLAIARELGIPIKFIGVGEKAEDLRPFDPEAFVEVLLSE | soluble |
| MKRKIIVACGGAVATSTMAAEEIKELCQSHNIPVELIQCRVNEIETYMDGVHLICTTARVDRSFGDIPLVHGMPFVSGVGIEALQNKILTILQG | soluble |
| MASYSDIVDSVRKCQFSPLYLLAGEEPFYIDELATLLETHVVPVDEWDFNRVILYGDKTSVADIANEARRFPMMGRRQLIVVREAQLVDNIDLLEAHYGTFPDTTILVIAYKKKPDKRKAFYTKAEKFGKVFVSETIPDYKMPDFILSAAAGKKLSVSPEVAYMLADYLGNDLEKLMNELDKLILITQDSRGVVTSEIVEQHIGVSKSFNNFELLRAIVNRETGKTFRIAHYFARNEKEHPIQATLPVLFNYFSNLMIVCYLPQKKPDAIMKALSIRNFQVRDYMTGLKMYSTRKVFDIIHEIRMTDARSKGVDTTGTFAGSGDLLRELLHFIFH | not soluble |
| MSLKRKIETFLAKWKKSEDRKPLVIKGIRQCGKTYIVQKFAKENYESVVYMNFILEPDKKSAFTGNIDVDTIILNLSALIQGSRFINGKTCIILDEIQECKEARTALKSFHIDGRFDVIATGSLLGVKGYDKSKKKKEEEEGQDSVPVGYETVIDMYPLDFEEFLWANGISDMVIDSVKSCFENESTVPDGIHKAMMELLYRYVIVGGLPEVVNCFLETKNIELIYKVQRNLIAEYEEDMVKYADDPDKPRIRECFESIPKQLAKENKKFQYSVVKKGGRASQYIGSIQWLEDAGIVRRCYNTQITELPLEGNSIKGSFKVYTTDIGILMAMLDYGTQADILKGNLLGYKGAIFENLMADFLCKSGQKLYYFHKDSGLELDFLVRFKGECVILEVKAKTGKAKSMTTVLKNKDVYYVNNAIKLGQYNVGCEGDILTIPLYMGFLVEDKLADVIIPDVDVSLLTTIEGHHHHHH | soluble |
